Drawing on a protein production outcome set (Wang et al. 2014), this text covers protein production for 15 sequences.
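Further: failed if final PepcDB status was selected cloned or expressed and not failed if soluble or beyond.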

This data set can be described thus: label from the status in PepcDB records.
For “MRVEENYHAFFTEASGFLNERIFKDYLRRLAYGIDASCYRYIPKIVAWVKNEEEVQKLCVLAKKHGVSLTFRAAGSSLSGQAICDGVLVMVTHFFKDAQILDNAQSIQLSCGVIGSNANALLKPYHKKIGPDPSTINTAMIGGIVANNASGMCCGVEQNSYKTLKSLRVILADGTLLDTANQESVESFKNAHKDLIEGVLNLRKEILEDKELHALIKKKYEIKNTTGYSLNALIDFEDPIEIISHLFIGSEGTLGFISSVELECVKDYAYKTCALLFYENLERCAKAAQILAALKAKQPEMISSAELMDYACLKSVKGLEGMPSVVLEIKEPNACLLIQSESDDPLILENSMQTILNALSAIPVVLDSQISSDPSIYQSWWKIRKGIFPIAASKRKSQSSVIIEDICFSQEDFVEGAKAIEGLLKKHGFKDNGIIFGHALSGNLHFVVTPILENEAERKAFENLVSEMFLMVSKSSGSIKAEHGTGRMVAPFVEMEWGEKAYKIHKQIKELFDPNGILNPDVIITNDKEIHTKNLKSIYPIEEHLDMCMECGFCERICPSKDLSLTPRQRIVIHREVEHLKERVSHGHHEDQVLLDELLKESEYLAHATCAVCHMCSTLCPLEIDTGKIALNYYQKNPKGEKIASKILNHMQTTTSMARFSLKSARLVQNLIGSHNLVSLTKGIKKFIKPFPKAFYYMPKNNAYPLENKTLKSEEKVIYFSTCINRSFAPSNKMADKRCIQEVFESLCQKAKVSVMYPNGLNALCCGKAFINYTDLTKQNNEKNHAIFLQLSDKGKIPIVLDHSACSTHFFKQMKAYKDLKVYDLSVYIEEVLSPKLKFNPINEDIGLYTMCALKLENKEELLFNLAKKCTLGEIVIHKETGCCGFAGNKGFFTPELNESALNGFQAFYQSYDLKRGFSTSSTCEIGLSEKTRFSWQHIAYLVDACTL”, the protein production entry is reported as “failed”.

Consider “MRVIVTEYQPAWVEQFEEEAQALKQILKENCLKVEHIGSTSVPNLAAKPIIDFLVIVEEIEKVDLLQWEFERIGYEYMGEFGLSGRRYLRKGPIKRTHHVHIYQFDNTQEILRHLAFRNYLRENPAIATTYGTLKKQLAQAHPDSIDKYMDGKDAFIKKIEKEALKKYWE”, for which the protein production result is on record as “not failed”.

For “MRVLAIRHVEIEDLGMMEDIFREKNWSFDYLDTPKGEKLERPLEEYSLVVLLGGYMGAYEEEKYPFLKYEFQLIEEILKKEIPFLGICLGSQMLAKVLGASVYRGKNGEEIGWYFVEKVSDNKFFREFPDRLRVFQWHGDTFDLPRRATRVFTSEKYENQGFVYGKAVGLQFHIEVGARTMKRWIEAYKDELEKKKIDPRLLLETAEREEKVLKGLLRSLLERMVES”, the protein production entry is reported as “not failed”.

Consider “MRVMAFVQARMGSTRLPGKSLMPVWNGMGVLEMTLRRALRARTLSGVVLCTSTDPACDALETLASGLGVQAFRGPEDDVLTRYALATERFEPDAVVRICADSPLVCPEGIDALVAFFRDEGLDYAAHAMDGTGLPDGLGCEVFTAAALAQAHAEATAPEDREHVSLFIRHRPERFRQATLAADAALRAPGVSLDVDTQDDLDALRRFIMALPPSEGPFWSADAIAPLARGLHTPPQGTSMDIASDDYHDFFIRDGKLIGEFEQMYRKSRHAPWHQDEACDKWFNKVSAALVGHALDDPSVRTVFEVGSGLGYFLSQFAGEGRTLTGTDVSATAVEKARALFPGISFEVDDIRFEGRRGPYDLCLMQAVCWCIFPHMDDVVRNVTATVRPGGYLFLGECFQPLDGPFAGKDVIPTPDALIGHFSHAFDTVADVRVTRGEMGGGPIIYWLGRRRGLEHHHHHH”, for which the protein production result is reported as “not failed”.

Turning to “MRVRNRKGATELLEANPQYVVLNPLEAKAKWRDLFGNDNPIHVEVGSGKGAFVSGMAKQNPDINYIGIDIQKSVLSYALDKVLEVGVPNIKLLWVDGSDLTDYFEDGEIDRLYLNFSDPWPKKRHEKRRLTYKTFLDTFKRILPENGEIHFKTDNRGLFEYSLVSFSQYGMKLNGVWLDLHASDFEGNVMTEYEQKFSNKGQVIYRVEAEF”, the protein production entry was “not failed”.

For “MRVVRGDVARRALSIGWPLVVADSALSIAWIVDTYFVGGLGSESIAAVGAAGYLIWLYMVFSTLVYMGVLVILGQAIGSGNRGLVERAAGEGLTLSILLSIIVCAAAFAASKQLLVVLAPEVDQLAWEYLSVSLLTVALHYVTILYDAVFRALGKTMPILYSSGVFTLANTALDPILIYGRLGAPALGVEGAAWASVAASLLGLLVLVYLSRYLDVGLRPLRPTSVSRSILALGFPSMVERVVFVVGNVVYLGSVSRCGADALAAHTIGVRIESLAFLPLFSIATASGVMVGWEVGAGRIAESKSTGWELIKLSSLIGLVVGAALALGGWLVTPIFTGDPRVAWLAALYLVIAGLTEPLLGVVMVAGQIIRNAGDTRTPTLVNLGSLYILRVVPAYLLPGLMPTGLCVLGAWLAMGIDIVGRAAAIVFIYLRYYTRLARRVA”, the protein production entry is on record as “failed”.

On to “MRWKYLVVLLIVILLASGCAEKSQGPGASAAFQEPESDTQDTEKTGNSEEGVHIDSVVFSRAGALLTLKDEAEISEIRVYSESEEIASQEIGKNKDNVFVSFNWDPEARYRFEVITGSGASGTIEAYAPSKPALKKEYTIELEDVTPGDIEKTSTNVEGALKFSPDSEYLAIGTNGGSLKLIKVATGEKVWEKQLVKGIADARIADIEFSEDGKRLFVGEESPDAFLYCFDLEGTEIWKYGAGKELGSDLKYMPAMKKIKLDSEGNIYVAASRACGYIGEKYKYLARIYSFDPEGNLRWKFPESEYMDSGVTWIDATPDGKYAVFGTTCFTETEKWREGTVHALNGNTGQEHWSYKIQPVEPFFDYSAIWYSTQITPDGEKLITMTSDGRAFLFNNSRIIETGTPEITWQQNISTPIVVSGVPIYGSANYAYIVNDTLIFSIGSTFSKDKNKDAPFEHPSGNSLFAYDYDGNLLWKWRVDGYAGECAVNDRYLVIPLAQNLVTEDRSVHGVYVFDASKSGGASSRLIQTYNTEGITVSADISPDGRYIAALEAPSRLDDGTVLGEYKVHILT”, for which the protein production result is recorded as “failed”.

As for “MRWNCSACWASSASANAGRRRHFDTSLWRASCSGYGARARQIQAAWIRADTPESTRVPATRRIRLLNPVVPVRSLSACRHLTRSRPPLRSFTMPHVVARSGDVMSSAAPPSCTSLLGLSLSMFVAPCTLTAAPLDTPVVNAPAPTPPTPDQAYPELFQAVQSGELFDDQKHFVDFLPLRDPALINADYLAQHDHPGFDLRKFVDANFEESPPVQTDAIRQDTALREHIDLLWPKLVRSQNHVPPYSSLLSLPHPYVVPGGRFREVYYWDSYFTMLGLVKSGQTTLSRQMLDNFAYLIDTYGHIPNGNRSYYLSRSQPPFFSYMVELQAGVEGQAVYQRYLPQLQKEYAYWMQGSDDVQPGQAARHVVRLADGSVLNRYWDERDTPRPEAWLHDTRTAAEVKDRPAAEVYRDLRAGAESGWDYTSRWLADGQNLRTIRTTAIIPIDLNSLLYHLERTLAQACAQPGAACSRDYAALAQQRKQAIDAHLWNKAGYYADYDWQTRTLSDQITAAALYPLFAGLASDDHAKRTASTVRRTLVRPGGLATTAVKTGQQWDEPNGWAPLQWVAVDGLRRYGEQALARTIGERFLAQVQALFAREHKLVEKYGLETNAAGGGGGEYALQDGFGWTNGVTLMLLNLYPGKGAKAAPAKRVRKTEAAAR”, the protein production entry is recorded as “failed”.

As for “MRWRHPSALRKADERGRRTPCVVSATSLAVGRIALALLLVVLNGFFVAAEFAFVRLRSASVETLVQDGRRGATAVKEATDNLDDYLAVSQLGITIASLGLGWVGEPAVAVLVDPLLEPVLPAPVRHTVTVALGFGIVTLLHVVYGELAPKTIAIQRAERVALVVAPVMKLFYYVFLPGTILFNGIATRSVQLIGVSPETEGHDTHTEPEILSVLSEASAAGRISPAEVSMIEHVFSLDDTTVREIMRPRPDVTSVSADTPLPELRTMAASGEYTRYPVTEGPDDDVIGFVDVKDILRASDAIDESGDVTARELSRPVVVVPETLRVDELLAEFQAEHRQMAVVIDEWGAFEGLATIEDALEVIVGDIRDQFDLATHAQSIEPRDDGGYEVPGAVSITELNDHLGTDFENEAVETVAGLVVSRLGHAPTVGDRAVIDTHTFRVTGVDGARITSLTVTPDS”, the protein production entry is listed as “failed”.

Regarding “MRYERDMRGYGANPPDPKWPGGAHVAVQFVVNYEEGGENCVLHGDKASEAFLSEIVGAAPWVGQRHWNMESIYEYGARAGFWRLLRLFSESQVPVTCYGVASALARSPDQVTAMQDAGWEIASHGLRWIDYRDHSAEDERRDLEAAIKLHYEVTGQRPTGWYTGRTSVNTVRLVAEEGGFDYVSDTYDDELPYWFEHAGGTQLIIPYTLDANDMRFATPQGFNSGDQFFAYLKDSFDTLYAEGQAGRPRMMNIGLHCRLVGRPGRVAALKRFVDYVKSHDKVWLTRRIDIAKHWQENHPYKPAALRPSKMEFEIFVHTFGGVFEHSPWIAERAYELELGPAHDTAGGLHNALCRIFRSASETERLGVLNAHPDLAGKLAKARRLTAESTREQASAGLDALTDKERELFSKLNAAYVTTFGFPFIIAVKGKTKEEILAEFEARIGNSRGVEFETACKQVERIALLRLRDMLPQ”, the protein production entry is given as “failed”.

With “MRYKRRFVTVYRDFPEGCGVPSKPISNADESFMQSKFNKDGIVLQAHEDFSKITKESSNHSETENSRTEDLLDEGSVLDSNGSVTDCQEDREREMSSVKKRCLSSHNLTSEVETERIGIVLGLAAKAKCPWRQPKIRGSRQVNDLN”, the protein production entry is “failed”.

As for “MRYSPRKQCYFALFFFAFVALCVGVIELLHQNQQDLQQERVQVEAKEQLSILRSNLEAVLMADIYKASTLATLITLLPNSEEEELSIAADRILNKSKHITVIGIAENDVISHIFPTQGNERVLGLDYRKVPAQWVQVQKAKDIQEIFIAGPVSLVQGGRGLIVRVPVFRDPPINKEYWGVISAVVDFDGLMRETGVFDFSYHYPLTIRGYDSGGEYGDMFFGDPNQTGKLYAKEHVHFPYGGWSMAAYAGGQLEQQISWFELNIVRIIGYPILIALSIALIVIYRLYIIADDRALHDELTHLPNRRYFMQSYKQQFEIAKRYKKRYSFALINIDLDRFKHINDTFGHDAGDKVLIATAERIKSSLRRSDMVARMGGDEFLVVVHNLGMEEHVQKLLQKLRLALCSTPVIYDEELIYLRVSIGYAIFDPQMTSPEQMMKIADERMYQQKHGGLEHHHHHH”, the protein production result was “not failed”.

Take “MRYVLALFFYRVFLLLLTPIVLLVLLIRSFNHPEYRQRLFERLGFFPKPYKQGGIVVHAASVGEVIALKSFIEKLLVNYPDLPITITSFTPTGSAQITKLFGRRVQHGYLPLDIFPCTTLFLHRLKPKMIIFMETELWPNLIAQCDQHQIKLLLINGRLSKKSLTSYQKLSALMAPCLNRFDMILTQSQENLTHFLQLGAHQSRCVNSGNLKFDISVNEQVINKKAELAKLLFADDSQAKRTVWLVASTHEGDEAITLTAFKELLSQYPSLLLVLVPRHPERFEQVANLCLTKQLSLAKRSENTIINNEQVWLLDSLGELMAAFALSDIVTMGGSFSEVGGHNPLEPALFNKPVIVGHNMSNFNEIMQQLRQENAIIELTNNTPTNESSAQLVNEVSALLQQPTRQKTLGENALKVVLKNQGASEKTLAQVVNLLPTRVNITSTTPLGDNS”: the protein production entry is “failed”.

Regarding “MRYVLYVPDISCNHCKMRISKALEELGVKNYEVSVEEKKVVVETENLDSVLKKLEEIDYPVESYQEV”, the protein production entry is “not failed”.

For the sequence “MSAEPRLHTLRVARTARVATLGTPATAGSWWVVLHGYGQLAADFVSAFHPLVAPDRCVVAPEGLSRFYVDGMAQHEQVGASWMTREAREAEVSDYVDALDATVRHLADDTPPSLHVLGFSQGAVTASRWALWGDTAVDRLVLWGGAPAHDLDLAEHAASLRALDLTLVAGTEDPYVTDDRWAAIRRRLQAHDIPVTTRTFEGGHRIDPAPLRALVAPA”, the protein production entry was “failed”.
